Measurements: US20200399353A1 (AGENCY FOR SCIENCE TECHNOLOGY AND RESEARCH, published 2020)

B1: mAb 2448 (antibody, V domains shown)
VH: VQLQESGPDLVKPSRSLSLTCTVTGYSITSGYSWHWIRQFPGNKLEWMGYIHYSGSTKYNPSLKSRISITRDTSKNQFFLQLNSVTTEDAATYYCARGSNYGFDYWGQGTTLTVSS
VL: DIELTQSPSSLAVSVGEKVTMSCKSSQSLLYSNDQKNYLAWYQQKPGQSPKLLIYWASIRESGVPDRFTGSGSGTDFTLTISSVKAEDLAVYYCQQYYIYPLTFGAGTKLEIKR
B2: Chimeric mAb ch2448 (antibody, V domains shown)
VH: B1 VH
VL: B1 VL
notes: also called wildtype chimeric mAb ch2448
B3: Afucosylated ch2448 (antibody, V domains shown)
VH: B1 VH
VL: B1 VL
notes: also called aF-ch2448

Tests used:
[1] = target: T1, cell surface Annexin A2 (ANXA2) on live cells (human, UniProt P07355 2-339, N-linked glycan (N-glycan-dependent epitope; its position is not shown by an experiment)); experiment: flow cytometry on live IGROV1 cells
T1 construct: Endogenous ANXA2 on live human cancer cell lines (IGROV1, MCF7 and others) and hESC; also called annexin 2

[2] = target: T1, cell surface Annexin A2 (ANXA2) on live …; experiment: flow cytometry

T1 sequence (P07355 2-339 limits assumed): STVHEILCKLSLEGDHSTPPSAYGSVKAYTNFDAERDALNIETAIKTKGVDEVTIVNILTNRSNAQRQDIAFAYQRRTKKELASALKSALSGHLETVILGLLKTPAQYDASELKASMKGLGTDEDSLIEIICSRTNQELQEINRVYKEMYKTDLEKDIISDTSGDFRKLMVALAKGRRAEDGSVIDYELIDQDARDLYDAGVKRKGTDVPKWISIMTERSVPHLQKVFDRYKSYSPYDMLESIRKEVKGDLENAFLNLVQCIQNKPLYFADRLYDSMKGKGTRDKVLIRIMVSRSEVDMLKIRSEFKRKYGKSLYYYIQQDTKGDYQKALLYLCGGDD

binding result [1] | binding result [2] | Binder
binds |  | B1
 | binds | B2
 | binds | B3
